IC50, pseudovirus neutralization (TZM-bl luciferase) data for four substances are collected here from patent publication US20180119164A1.

Common to all, as to experiment: cell-based or functional assay
In assay [1] the target is Env of HIV pseudovirus DU156.12 (HIV strain DU156.12).
The target in assay [2] is Env of HIV pseudovirus JRFL (HIV strain JRFL).
Assay [3] concerns the target Env of HIV pseudovirus MN (HIV strain MN) (UniProt P05877).
For assay [4], the target named is Env of HIV pseudovirus YU2 (HIV strain YU2) (UniProt P35961).
In assay [5] the target is Env of HIV pseudovirus ADA (HIV strain ADA).
Assay [6] has as its target Env of HIV pseudovirus JRCSF (HIV strain JRCSF) (UniProt P20871).
For assay [7], the target named is Env of HIV pseudovirus CAP45 (HIV strain CAP45).
Assay [8] addresses Env of HIV pseudovirus PVO (HIV strain PVO).
Assay [9] deals with Env of HIV pseudovirus ZM214M (HIV strain ZM214M).
The target of assay [10] is Env of HIV pseudovirus DU422.1 (HIV strain DU422.1).
Assay [11] has as its target Env of HIV pseudovirus TRO.11 (HIV strain TRO.11).

Sequence of UniProt P35961 (P35961 32-843 limits assumed): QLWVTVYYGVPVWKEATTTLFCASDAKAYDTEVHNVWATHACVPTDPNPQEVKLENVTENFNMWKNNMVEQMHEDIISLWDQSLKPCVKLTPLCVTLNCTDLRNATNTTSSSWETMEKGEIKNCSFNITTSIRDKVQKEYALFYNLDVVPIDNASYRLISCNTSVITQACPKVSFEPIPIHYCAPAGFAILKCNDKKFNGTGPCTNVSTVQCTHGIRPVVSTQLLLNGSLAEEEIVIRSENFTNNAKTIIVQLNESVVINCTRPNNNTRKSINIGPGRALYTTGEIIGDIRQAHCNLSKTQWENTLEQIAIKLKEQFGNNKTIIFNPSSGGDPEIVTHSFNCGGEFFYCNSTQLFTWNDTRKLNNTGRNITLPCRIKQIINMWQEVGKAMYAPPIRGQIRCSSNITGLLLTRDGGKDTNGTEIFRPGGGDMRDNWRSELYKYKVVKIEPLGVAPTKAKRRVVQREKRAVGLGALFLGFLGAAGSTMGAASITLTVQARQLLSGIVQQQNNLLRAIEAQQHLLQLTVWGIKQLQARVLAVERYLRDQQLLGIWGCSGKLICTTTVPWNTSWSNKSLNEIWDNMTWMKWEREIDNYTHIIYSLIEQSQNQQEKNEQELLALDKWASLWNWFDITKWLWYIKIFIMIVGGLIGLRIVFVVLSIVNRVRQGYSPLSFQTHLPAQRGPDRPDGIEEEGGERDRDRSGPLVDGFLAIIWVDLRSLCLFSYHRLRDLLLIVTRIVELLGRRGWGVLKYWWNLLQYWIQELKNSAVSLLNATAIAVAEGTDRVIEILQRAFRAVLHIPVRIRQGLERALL
Sequence of UniProt P20871 (P20871 32-848 limits assumed): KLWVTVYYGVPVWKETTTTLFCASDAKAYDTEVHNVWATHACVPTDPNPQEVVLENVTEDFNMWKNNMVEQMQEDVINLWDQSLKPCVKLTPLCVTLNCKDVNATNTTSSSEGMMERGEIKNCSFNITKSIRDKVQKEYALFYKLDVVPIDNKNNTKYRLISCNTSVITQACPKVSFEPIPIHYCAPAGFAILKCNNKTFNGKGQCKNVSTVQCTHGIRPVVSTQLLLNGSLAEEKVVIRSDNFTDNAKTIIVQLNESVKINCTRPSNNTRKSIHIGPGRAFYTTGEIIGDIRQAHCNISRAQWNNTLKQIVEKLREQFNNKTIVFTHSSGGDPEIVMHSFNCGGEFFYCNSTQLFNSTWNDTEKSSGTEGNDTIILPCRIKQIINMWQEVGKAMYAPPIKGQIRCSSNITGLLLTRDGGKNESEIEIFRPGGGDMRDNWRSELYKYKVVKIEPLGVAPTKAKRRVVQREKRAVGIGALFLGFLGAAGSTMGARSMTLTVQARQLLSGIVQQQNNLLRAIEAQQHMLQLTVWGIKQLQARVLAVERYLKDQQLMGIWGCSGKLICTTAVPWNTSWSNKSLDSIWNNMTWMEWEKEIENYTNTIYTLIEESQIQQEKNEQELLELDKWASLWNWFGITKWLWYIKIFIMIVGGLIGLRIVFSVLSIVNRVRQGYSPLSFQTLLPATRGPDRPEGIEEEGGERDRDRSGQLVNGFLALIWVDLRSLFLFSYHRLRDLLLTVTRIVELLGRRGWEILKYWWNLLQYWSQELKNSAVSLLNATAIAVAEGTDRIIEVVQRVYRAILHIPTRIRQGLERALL
Sequence of UniProt P05877 (P05877 32-856 limits assumed): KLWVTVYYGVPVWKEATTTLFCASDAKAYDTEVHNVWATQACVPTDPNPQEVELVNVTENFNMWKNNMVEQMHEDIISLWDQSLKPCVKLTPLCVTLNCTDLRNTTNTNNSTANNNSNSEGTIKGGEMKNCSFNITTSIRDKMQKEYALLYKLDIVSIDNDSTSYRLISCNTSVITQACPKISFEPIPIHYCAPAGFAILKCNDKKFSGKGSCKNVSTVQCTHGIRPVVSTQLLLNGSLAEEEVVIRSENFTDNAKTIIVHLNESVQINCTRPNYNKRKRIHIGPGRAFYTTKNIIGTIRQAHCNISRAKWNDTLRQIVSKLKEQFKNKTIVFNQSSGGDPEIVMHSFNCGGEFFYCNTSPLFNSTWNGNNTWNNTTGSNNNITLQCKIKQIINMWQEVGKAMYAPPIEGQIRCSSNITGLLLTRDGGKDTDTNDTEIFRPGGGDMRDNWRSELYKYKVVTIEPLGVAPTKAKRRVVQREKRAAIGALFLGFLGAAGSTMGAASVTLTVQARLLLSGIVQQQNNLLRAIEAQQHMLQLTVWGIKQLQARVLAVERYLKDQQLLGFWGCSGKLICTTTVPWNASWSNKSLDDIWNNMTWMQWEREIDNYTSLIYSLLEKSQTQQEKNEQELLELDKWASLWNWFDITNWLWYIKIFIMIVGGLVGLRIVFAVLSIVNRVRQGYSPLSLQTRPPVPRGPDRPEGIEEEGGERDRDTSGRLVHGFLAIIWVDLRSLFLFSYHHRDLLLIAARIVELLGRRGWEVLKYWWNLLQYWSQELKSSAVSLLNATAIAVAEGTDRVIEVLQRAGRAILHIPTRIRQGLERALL

^CHOPG9 (antibody): the IC50, pseudovirus neutralization (TZM-bl luciferase) is 0.35 µg/mL in [1]; > 50 µg/mL in assay [2]; > 50 µg/mL in assay [3]; > 50 µg/mL in assay [4]; 42.8 µg/mL in [5]; < 0.02 µg/mL in assay [6]. Also, the IC50, pseudovirus neutralization (TZM-bl luciferase) in [7] is < 0.02 µg/mL; in assay [8] it was > 50 µg/mL; in assay [9], > 50 µg/mL; in assay [10], 10.9 µg/mL; in assay [11] it was > 50 µg/mL.

Take ^ΔXFPG9SulfSia (antibody): the IC50, pseudovirus neutralization (TZM-bl luciferase) is 0.9 µg/mL in assay [1]; > 50 µg/mL in assay [2]; > 50 µg/mL in [3]; > 50 µg/mL in assay [4]; 40.2 µg/mL in assay [5]; 0.03 µg/mL in assay [6]. Also, the IC50, pseudovirus neutralization (TZM-bl luciferase) in assay [7] was < 0.02 µg/mL; in assay [8] it was > 50 µg/mL; in assay [9], > 50 µg/mL; in assay [10], 6.6 µg/mL; in [11], > 50 µg/mL.

As to ^ΔXFPG9Sulf (antibody), the IC50, pseudovirus neutralization (TZM-bl luciferase) in assay [1] was 1.2 µg/mL; in assay [2] it was > 50 µg/mL; in assay [3] it was > 50 µg/mL; in [4], > 50 µg/mL; in assay [5], 37.4 µg/mL; in assay [6], < 0.02 µg/mL. The IC50, pseudovirus neutralization (TZM-bl luciferase) in [7] was 0.03 µg/mL; in assay [8], > 50 µg/mL; in [9], > 50 µg/mL; in assay [10], 14.3 µg/mL; in [11], > 50 µg/mL.

Regarding ^ΔXFPG9 (antibody), the IC50, pseudovirus neutralization (TZM-bl luciferase) in assay [1] is > 50 µg/mL; in assay [2], > 50 µg/mL; in assay [3], > 50 µg/mL; in [4] it was > 50 µg/mL; in assay [5], > 50 µg/mL; in assay [6], 0.19 µg/mL. For the same substance, the IC50, pseudovirus neutralization (TZM-bl luciferase) in assay [7] was 0.65 µg/mL; in [8], > 50 µg/mL; in [9], > 50 µg/mL; in assay [10], > 50 µg/mL; in assay [11], > 50 µg/mL.
